In article doi:10.1101/2022.04.18.488654, “The DNA replication initiation protein DnaD is recruited to a specific strand of the Bacillus subtilis chromosome origin” (bioRxiv, 2022):

Columns and labels:
[1] = biological target: T1, DnaD L22A (Bacillus subtilis 168CA, UniProt P39787 1-232, L22A); experiment: fluorescence polarisation; FP: 10 mM HEPES-KOH pH 7.5, 1 mM Mg acetate, 100 mM K glutamate, 20 C, 10 min, 1.875 nM DNA; crosslinking buffer not in material; conditions: protein: recombinant; tags: His14-SUMO tag cleaved; label: fluorescein
T1 sequence: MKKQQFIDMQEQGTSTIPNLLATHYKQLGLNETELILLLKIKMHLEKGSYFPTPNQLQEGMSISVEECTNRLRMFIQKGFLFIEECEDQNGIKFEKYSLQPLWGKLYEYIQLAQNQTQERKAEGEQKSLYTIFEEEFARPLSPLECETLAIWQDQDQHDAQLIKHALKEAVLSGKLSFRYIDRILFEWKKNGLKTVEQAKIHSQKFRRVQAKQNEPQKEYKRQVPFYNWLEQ

[2] = biological target: T2, DnaD F6A (Bacillus subtilis 168CA, UniProt P39787 1-232, F6A); experiment: fluorescence polarisation; similar to WT; FP: 10 mM HEPES-KOH pH 7.5, 1 mM Mg acetate, 100 mM K glutamate, 20 C, 10 min, 1.875 nM DNA; crosslinking buffer not in material; conditions: protein: recombinant; tags: His14-SUMO tag cleaved; chain copies: 2; label: fluorescein
T2 sequence: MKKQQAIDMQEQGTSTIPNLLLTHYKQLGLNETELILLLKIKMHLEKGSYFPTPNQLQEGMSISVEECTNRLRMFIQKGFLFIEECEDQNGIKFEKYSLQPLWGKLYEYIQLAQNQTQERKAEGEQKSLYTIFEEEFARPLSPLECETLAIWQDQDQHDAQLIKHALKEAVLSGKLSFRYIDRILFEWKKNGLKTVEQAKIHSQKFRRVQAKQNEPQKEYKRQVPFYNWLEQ

[3] = biological target: the molecule itself; experiment: SEC; Superdex 200 Increase 10/300GL, 4°C; 40 mM Tris-HCl pH 8, 500 mM NaCl, 1 mM EDTA, 20 mM imidazole
[4] = biological target: the molecule itself; experiment: SEC-MALS; purified DnaD variants; 20°C; 40 mM Tris-HCl pH 8, 500 mM NaCl, 1 mM EDTA, 20 mM imidazole, 2.5% v/v glycerol

Binder: TTTTTTTTTTTTTTTTTTTTTTTTTTTTTTTTTTTTTTTT (ssDNA) [polyT40 (oCW837)]
- binding result [1]: no binding

Binder: TTTTTTTTTTTTTTTTTT (ssDNA) [polyT18 (oCW1088)]
- binding result [2]: binds
- binding result [1]: no binding

B1: DnaD^1-224 (truncation lacking the DnaB interaction region, the last eight residues) (domain or fragment, Bacillus subtilis, UniProt P39787 1-224, looked up)
chain: MKKQQFIDMQEQGTSTIPNLLLTHYKQLGLNETELILLLKIKMHLEKGSYFPTPNQLQEGMSISVEECTNRLRMFIQKGFLFIEECEDQNGIKFEKYSLQPLWGKLYEYIQLAQNQTQERKAEGEQKSLYTIFEEEFARPLSPLECETLAIWQDQDQHDAQLIKHALKEAVLSGKLSFRYIDRILFEWKKNGLKTVEQAKIHSQKFRRVQAKQNEPQKEYKRQV
notes: DnaD, Bacillus subtilis 168CA, residues 1-224 (lacks the last eight amino acid residues of the C-terminal tail); also called C-terminal truncation; source: E. coli BL21(DE3)-pLysS, purified (HisTrap, SUMO protease digestion, reverse HisTrap)
- stoichiometry N [3]: 4

B2: DnaD^1-205 (truncation lacking the entire C-terminal tail) (domain or fragment, Bacillus subtilis, UniProt P39787 1-205, looked up)
chain: MKKQQFIDMQEQGTSTIPNLLLTHYKQLGLNETELILLLKIKMHLEKGSYFPTPNQLQEGMSISVEECTNRLRMFIQKGFLFIEECEDQNGIKFEKYSLQPLWGKLYEYIQLAQNQTQERKAEGEQKSLYTIFEEEFARPLSPLECETLAIWQDQDQHDAQLIKHALKEAVLSGKLSFRYIDRILFEWKKNGLKTVEQAKIHSQK
notes: DnaD, Bacillus subtilis 168CA, residues 1-205 (entire C-terminal tail removed); also called truncation of the DnaD^CTT; source: E. coli BL21(DE3)-pLysS, purified (HisTrap, SUMO protease digestion, reverse HisTrap)
- stoichiometry N [4]: 4

B3: DnaD (wild-type, Bacillus subtilis DNA replication initiation protein) (natural protein, UniProt P39787 1-232, looked up)
chain: MKKQQFIDMQEQGTSTIPNLLLTHYKQLGLNETELILLLKIKMHLEKGSYFPTPNQLQEGMSISVEECTNRLRMFIQKGFLFIEECEDQNGIKFEKYSLQPLWGKLYEYIQLAQNQTQERKAEGEQKSLYTIFEEEFARPLSPLECETLAIWQDQDQHDAQLIKHALKEAVLSGKLSFRYIDRILFEWKKNGLKTVEQAKIHSQKFRRVQAKQNEPQKEYKRQVPFYNWLEQ
notes: DnaD, Bacillus subtilis 168CA, amplified from genomic DNA; full-length protein; Tetramer by SEC-MALS and SEC; in the cryo-EM map only a dimer was seen; also called wild-type DnaD; full length DnaD; source: E. coli BL21(DE3)-pLysS, purified (HisTrap, SUMO protease digestion, reverse HisTrap)
- stoichiometry N [4]: 4
